From publication PMC5610943 (Journal of molecular biology, 2017) come the findings set out here.

In this assay the target is recombinant M. smegmatis RNAP β′ subunit (N-terminal 6xHistidine) (M. smegmatis, UniProt A0QS66 1-1317). Nature of the assay: co-IP.

B1: purified recombinant MsmTopoI (enzyme, M. smegmatis, UniProt A0R5D9 1-936, looked up)
chain: MAGGDRGSGGTGNVRRLVIVESPTKARKIAGYLGSNYVVESSRGHIRDLPRNAADVPAKFKSEPWARLGVNVDQNFEPLYIVSPEKKSTVTELKGLLKDVDELYLATDGDREGEAIAWHLLETLKPRVPVKRMVFHEITEPAIRNAAENPRDLDIALVDAQETRRILDRLYGYEVSPVLWKKVAPKLSAGRVQSVATRIIVQRERERMAFHSASYWDVTAELDASVSDPSASPPKFTAKLNTVDGRRVATGRDFDSLGQLKRPDEVLVLDEASAGALASGLRGAQLAVTSVEQKPYTRRPYAPFMTSTLQQEAARKLRFSSERTMSIAQRLYENGYITYMRTDSTTLSESAINAARTQARQLYGEEYVHPSPRQYTRKVKNAQEAHEAIRPAGDVFQTPGQLHSALDTDEFRLYELIWQRTVASQMADARGTTLSLRIGGSASSGEQVVFNASGRTITFPGFLKAYVESIDELAGGESDDAESRLPNLTQGQRVDAADLSADGHQTSPPARYTEASLIKALEELGIGRPSTYSSIIKTIQDRGYVQKKGSALVPSWVAFAVVGLLEQHFGRLVDYDFTAAMEDELDEIANGQEQRTNWLNNFYFGGEHGVEGSIARAGGLKQLVGGNLEGIDAREVNSIKVFDDSEGRPVYVRVGRNGPYLERMVDDPDNPGEQKPQRANLKEDLTPDELTPELAEKLFATPQEGRSLGIDPETGHEIVAKDGRFGPYVTEVLPEPEDGGDDGTAGTPAKKGKKPTGPKPRTGSLFRSMDLETVTLEDALKLLSLPRVVGVDPTTNEEITAQNGRYGPYLKRGTDSRSLATEDQIFTITLDEALKIYAEPKRRGRQAASAPPLRELGNDPVSGKPMVIKDGRFGPYVTDGETNASLRKGDDVLTITDERASELLADRRARGPVKKKAPAKKAAKKAPAKKAAAKKA
For B1, the binding result was “binds”.
